# T1: dSNF1-101 (RRM1) (UniProt P43332 1-101)
# T1 sequence: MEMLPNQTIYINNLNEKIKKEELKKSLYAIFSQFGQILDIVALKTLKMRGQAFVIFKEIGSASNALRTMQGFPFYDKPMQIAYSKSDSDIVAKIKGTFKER
# T2: dSNF1-96 (RRM1) (Drosophila melanogaster, UniProt P43332 1-96)
# T2 sequence: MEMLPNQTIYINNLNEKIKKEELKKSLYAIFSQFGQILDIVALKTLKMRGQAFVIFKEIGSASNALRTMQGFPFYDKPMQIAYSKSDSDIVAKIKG
# Tests used:
# dSNF1-101 (RRM1) [1] = molecular target: T1, dSNF1-101 (RRM1); assay: filter binding; without dU2A'; ITC: 150 mM KCl, 1 mM MgCl2, 20 mM HEPES-NaOH pH 7.5, 5% glycerol, 10 C; NMR: 50 mM KCl, 20 mM sodium cacodylate pH 6.5, 2 mM EDTA, 23 C; filter binding: KCl varied, other conditions not stated; conditions: protein: recombinant; tags: none stated; label: 32P internal; hairpin
# dSNF1-101 (RRM1) [2] = molecular target: T1, dSNF1-101 (RRM1); assay: NMR chemical shift perturbation; 300 uM protein, 700 uM RNA; ITC: 150 mM KCl, 1 mM MgCl2, 20 mM HEPES-NaOH pH 7.5, 5% glycerol, 10 C; NMR: 50 mM KCl, 20 mM sodium cacodylate pH 6.5, 2 mM EDTA, 23 C; filter binding: KCl varied, other conditions not stated; conditions: protein: recombinant; tags: none stated; hairpin
# dSNF1-96 (RRM1) [3] = molecular target: T2, dSNF1-96 (RRM1); assay: crystal structure; 2.0 A; ITC: 150 mM KCl, 1 mM MgCl2, 20 mM HEPES-NaOH pH 7.5, 5% glycerol, 10 C; NMR: 50 mM KCl, 20 mM sodium cacodylate pH 6.5, 2 mM EDTA, 23 C; filter binding: KCl varied, other conditions not stated; conditions: protein: recombinant; tags: N-terminal His6, TEV-cleaved; hairpin, blunt, 10-nt loop
# dSNF1-96 (RRM1) [4] = molecular target: T2, dSNF1-96 (RRM1); assay: ITC; 1 mM Mg2+, 10 C; n 0.781; ITC: 150 mM KCl, 1 mM MgCl2, 20 mM HEPES-NaOH pH 7.5, 5% glycerol, 10 C; NMR: 50 mM KCl, 20 mM sodium cacodylate pH 6.5, 2 mM EDTA, 23 C; filter binding: KCl varied, other conditions not stated; conditions: protein: recombinant; tags: N-terminal His6, TEV-cleaved; hairpin, 11-nt loop, U:G closing pair, blunt
# dSNF1-96 (RRM1) [5] = molecular target: T2, dSNF1-96 (RRM1); assay: ITC; 1 mM Mg2+, 10 C; n 0.894; ITC: 150 mM KCl, 1 mM MgCl2, 20 mM HEPES-NaOH pH 7.5, 5% glycerol, 10 C; NMR: 50 mM KCl, 20 mM sodium cacodylate pH 6.5, 2 mM EDTA, 23 C; filter binding: KCl varied, other conditions not stated; conditions: protein: recombinant; tags: N-terminal His6, TEV-cleaved; hairpin, 10-nt loop, 9-bp blunt stem
# [6] = molecular target: Drosophila U2A′ (dU2A′), triple cysteine variant, produced apart from dSNF (Drosophila melanogaster) (UniProt Q9V4Q8); assay: ITC; dU2A′ as the sample (2.5 µM), dSNF^1-101 as titrant (25 µM); 22 °C; 50 mM KCl, 100 mM arginine, 10 mM sodium cacodylate, pH 6.5 (methods) or pH 7 (results)
binder,measurement,setting,value
GGCCGGUAUUGCAAUACCGCCGGGUCC (structured_RNA) [dU2SLIV G13A],binding signal,dSNF1-101 (RRM1) [1],200 fold lower affinity than wt N6
"GGCCGGCAUUGCACCACGCGCCGGGUCC (structured_RNA) [dU1SLII (T7, NMR)]",binding result,dSNF1-101 (RRM1) [2],binds
GGCCGCAUUGCACCUCGCGGCC (structured_RNA) [dU1SLII 22-mer (crystal)],binding result,dSNF1-96 (RRM1) [3],binds
CCAGGACGUAUUGCAGUACCGCGUCCUGG (structured_RNA) [dU2SLIV (ITC)],Kd,dSNF1-96 (RRM1) [4],782 nM
CCAGGACGCAUUGCACCUCGCGUCCUGG (structured_RNA) [dU1SLII (ITC)],Kd,dSNF1-96 (RRM1) [5],34 nM
GGCCGGUAUUGCACUACCGCCGGGUCC (structured_RNA) [dU2SLIV G13C],binding signal,dSNF1-101 (RRM1) [1],16 fold higher affinity than wt N6
GGCCGGUAUUACAGUACCGCCGGGUCC (structured_RNA) [dU2SLIV G10A],binding signal,dSNF1-101 (RRM1) [1],1000 fold lower affinity than wt N6
"Drosophila melanogaster SNF RRM1, residues 1-101 (dSNF^1-101) (domain or fragment) MEMLPNQTIYINNLNEKIKKEELKKSLYAIFSQFGQILDIVALKTLKMRGQAFVIFKEIGSASNALRTMQGFPFYDKPMQIAYSKSDSDIVAKIKGTFKER",Kd,[6],4.2 nM
same,dH,[6],-241 kcal/mol

# Source: PMC5992148, “Molecular principles underlying dual RNA specificity in the Drosophila SNF protein”
